Laboratory results as given in publication PMC9815587, “The structure of the human LACTB filament reveals the mechanisms of assembly and membrane binding” (PLOS Biology, 2022).

B1: human LACTB (residues 97 to 547), wild-type (enzyme, UniProt P83111 97-547, looked up)
chain: APPCSRCFARAIESSRDLLHRIKDEVGAPGIVVGVSVDGKEVWSEGLGYADVENRVPCKPETVMRIASISKSLTMVALAKLWEAGKLDLDIPVQHYVPEFPEKEYEGEKVSVTTRLLISHLSGIRHYEKDIKKVKEEKAYKALKMMKENVAFEQEKEGKSNEKNDFTKFKTEQENEAKCRNSKPGKKKNDFEQGELYLREKFENSIESLRLFKNDPLFFKPGSQFLYSTFGYTLLAAIVERASGCKYLDYMQKIFHDLDMLTTVQEENEPVIYNRARFYVYNKKKRLVNTPYVDNSYKWAGGGFLSTVGDLLKFGNAMLYGYQVGLFKNSNENLLPGYLKPETMVMMWTPVPNTEMSWDKEGKYAMAWGVVERKQTYGSCRKQRHYASHTGGAVGASSVLLVLPEELDTETINNKVPPRGIIVSIICNMQSVGLNSTALKIALEFDKDRSD
notes: human LACTB (serine beta-lactamase-like protein, mitochondrial), residues 97 to 547 of the gene product of residues 1 to 547; Assembles into helical filaments of stacked antiparallel dimers; number of copies not fixed; also called WT LACTB; serine beta-lactamase-like protein; source: E. coli BL21(DE3)-RIPL, purified (Ni-NTA, tag removed with Ulp1, SEC on Superose 6 Increase); not shown: His6, …
B2: human LACTB (residues 97 to 547) R117E (enzyme, UniProt P83111 97-547, looked up)
chain: APPCSRCFARAIESSRDLLHEIKDEVGAPGIVVGVSVDGKEVWSEGLGYADVENRVPCKPETVMRIASISKSLTMVALAKLWEAGKLDLDIPVQHYVPEFPEKEYEGEKVSVTTRLLISHLSGIRHYEKDIKKVKEEKAYKALKMMKENVAFEQEKEGKSNEKNDFTKFKTEQENEAKCRNSKPGKKKNDFEQGELYLREKFENSIESLRLFKNDPLFFKPGSQFLYSTFGYTLLAAIVERASGCKYLDYMQKIFHDLDMLTTVQEENEPVIYNRARFYVYNKKKRLVNTPYVDNSYKWAGGGFLSTVGDLLKFGNAMLYGYQVGLFKNSNENLLPGYLKPETMVMMWTPVPNTEMSWDKEGKYAMAWGVVERKQTYGSCRKQRHYASHTGGAVGASSVLLVLPEELDTETINNKVPPRGIIVSIICNMQSVGLNSTALKIALEFDKDRSD
notes: human LACTB, residues 97 to 547, polymer interface 1 charge-reversal mutant; source: E. coli BL21(DE3)-RIPL, purified (Ni-NTA, tag removed with Ulp1, SEC on Superose 6 Increase); not shown: His6, N-terminal, cleaved; SUMO, N-terminal, cleaved
B3: human LACTB (residues 97 to 547) 274ExExxExxEEE284 mutant (enzyme, UniProt P83111 97-547, looked up)
chain: APPCSRCFARAIESSRDLLHRIKDEVGAPGIVVGVSVDGKEVWSEGLGYADVENRVPCKPETVMRIASISKSLTMVALAKLWEAGKLDLDIPVQHYVPEFPEKEYEGEKVSVTTRLLISHLSGIRHYEKDIKKVKEEKAYKALKMMKENVAFEQEKEGKSNEKNDFTKFKTEQENEAECENSEPGEEENDFEQGELYLREKFENSIESLRLFKNDPLFFKPGSQFLYSTFGYTLLAAIVERASGCKYLDYMQKIFHDLDMLTTVQEENEPVIYNRARFYVYNKKKRLVNTPYVDNSYKWAGGGFLSTVGDLLKFGNAMLYGYQVGLFKNSNENLLPGYLKPETMVMMWTPVPNTEMSWDKEGKYAMAWGVVERKQTYGSCRKQRHYASHTGGAVGASSVLLVLPEELDTETINNKVPPRGIIVSIICNMQSVGLNSTALKIALEFDKDRSD
notes: human LACTB, residues 97 to 547, motif 274KxRxxKxxKKK284 changed to 274ExExxExxEEE284; single changes counted out from the printed motifs; source: E. coli BL21(DE3)-RIPL, purified (Ni-NTA, tag removed with Ulp1, SEC on Superose 6 Increase); not shown: His6, N-terminal, cleaved; SUMO, N-terminal, cleaved
B4: human LACTB (residues 97 to 547) 259EAxAxEAE266 mutant (enzyme, UniProt P83111 97-547, looked up)
chain: APPCSRCFARAIESSRDLLHRIKDEVGAPGIVVGVSVDGKEVWSEGLGYADVENRVPCKPETVMRIASISKSLTMVALAKLWEAGKLDLDIPVQHYVPEFPEKEYEGEKVSVTTRLLISHLSGIRHYEKDIKKVKEEKAYKALKMMKENVAFEQEKEGKSNEEADATEAETEQENEAKCRNSKPGKKKNDFEQGELYLREKFENSIESLRLFKNDPLFFKPGSQFLYSTFGYTLLAAIVERASGCKYLDYMQKIFHDLDMLTTVQEENEPVIYNRARFYVYNKKKRLVNTPYVDNSYKWAGGGFLSTVGDLLKFGNAMLYGYQVGLFKNSNENLLPGYLKPETMVMMWTPVPNTEMSWDKEGKYAMAWGVVERKQTYGSCRKQRHYASHTGGAVGASSVLLVLPEELDTETINNKVPPRGIIVSIICNMQSVGLNSTALKIALEFDKDRSD
notes: human LACTB, residues 97 to 547, motif 259KNxFxKFK266 changed to 259EAxAxEAE266; single changes counted out from the printed motifs; source: E. coli BL21(DE3)-RIPL, purified (Ni-NTA, tag removed with Ulp1, SEC on Superose 6 Increase); not shown: His6, N-terminal, cleaved; SUMO, N-terminal, cleaved
B5: human LACTB (residues 97 to 547) with the L15 loop (V467 to Y482) replaced by a GGS linker (enzyme)
chain: APPCSRCFARAIESSRDLLHRIKDEVGAPGIVVGVSVDGKEVWSEGLGYADVENRVPCKPETVMRIASISKSLTMVALAKLWEAGKLDLDIPVQHYVPEFPEKEYEGEKVSVTTRLLISHLSGIRHYEKDIKKVKEEKAYKALKMMKENVAFEQEKEGKSNEKNDFTKFKTEQENEAKCRNSKPGKKKNDFEQGELYLREKFENSIESLRLFKNDPLFFKPGSQFLYSTFGYTLLAAIVERASGCKYLDYMQKIFHDLDMLTTVQEENEPVIYNRARFYVYNKKKRLVNTPYVDNSYKWAGGGFLSTVGDLLKFGNAMLYGYQVGLFKNSNENLLPGYLKPETMVMMWTPVPNTEMSWDKEGKYAMAWGVGGSASHTGGAVGASSVLLVLPEELDTETINNKVPPRGIIVSIICNMQSVGLNSTALKIALEFDKDRSD
notes: human LACTB, residues 97 up to the residue before V467; glycine-glycine-serine (GGS) linker in place of V467 to Y482; human LACTB, from the residue after Y482 to 547; also called L15 loop replacement; removal of the L15 loop; source: E. coli BL21(DE3)-RIPL, purified (Ni-NTA, tag removed with Ulp1, SEC on Superose 6 Increase); not shown: His6, N-terminal, cleaved; SUMO, N-terminal, cleaved
B6: human LACTB (residues 97 to 547) with the flexible loop region (residues K255 to K284) replaced by a GGS linker (enzyme)
chain: APPCSRCFARAIESSRDLLHRIKDEVGAPGIVVGVSVDGKEVWSEGLGYADVENRVPCKPETVMRIASISKSLTMVALAKLWEAGKLDLDIPVQHYVPEFPEKEYEGEKVSVTTRLLISHLSGIRHYEKDIKKVKEEKAYKALKMMKENVAFEQEKEGGGSNDFEQGELYLREKFENSIESLRLFKNDPLFFKPGSQFLYSTFGYTLLAAIVERASGCKYLDYMQKIFHDLDMLTTVQEENEPVIYNRARFYVYNKKKRLVNTPYVDNSYKWAGGGFLSTVGDLLKFGNAMLYGYQVGLFKNSNENLLPGYLKPETMVMMWTPVPNTEMSWDKEGKYAMAWGVVERKQTYGSCRKQRHYASHTGGAVGASSVLLVLPEELDTETINNKVPPRGIIVSIICNMQSVGLNSTALKIALEFDKDRSD
notes: human LACTB, residues 97 up to the residue before K255; GGS linker in place of K255 to K284; human LACTB, from the residue after K284 to 547; also called ΔL6; flexible loop deletion; source: E. coli BL21(DE3)-RIPL, purified (Ni-NTA, tag removed with Ulp1, SEC on Superose 6 Increase); not shown: His6, N-terminal, cleaved; SUMO, N-terminal, cleaved

Target: the molecule itself
Assay: SEC; Superose 6 Increase 10/300 GL; 20 mM HEPES-NaOH (pH 7.5), 140 mM NaCl, 10 mM KCl, 1 mM MgCl2, 1 mM DTT; self-assembly, filaments elute within the void volume

Binding result, binds:
B1

Target: the molecule itself
Assay: negative-stain TEM; SEC peak fractions diluted to approximately 2.0 μm (so in the source), 0.75% uranyl formate, Tecnai T12 at 100 kV; self-assembly into filaments

Binding result, binds:
B2
B3
B4
B5
B6
